pKd: −log10 of the molar value.
How the values were obtained:
[1] = target: biotinylated human D-MCP-1 (mirror-image D-protein) (Homo sapiens) (UniProt P13500); assay: pulldown
[2] = target: biotinylated murine D-MCP-1 (mirror-image D-protein) (Mus musculus) (UniProt P10148); assay: pulldown; details: subnanomolar
[3] = target: human MCP-1 (CCL2, natural L-form) (Homo sapiens) (UniProt P13500); assay: SPR; details: L-RNA, 37 C, 1 mM Mg, 1 mM Ca
[4] = direct or competitive pull-down

biotinylated human D-MCP-1 (mirror-image D-protein) (Homo sapiens), sequence (P13500 24-99): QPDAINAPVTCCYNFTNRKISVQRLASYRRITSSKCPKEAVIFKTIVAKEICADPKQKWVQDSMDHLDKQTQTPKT
biotinylated murine D-MCP-1 (mirror-image D-protein) (Mus musculus), sequence (P10148 24-99): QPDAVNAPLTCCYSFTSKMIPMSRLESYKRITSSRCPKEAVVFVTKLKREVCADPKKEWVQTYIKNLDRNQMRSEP
human MCP-1 (CCL2, natural L-form) (Homo sapiens), sequence (P13500 24-99): as the sequence (P13500 24-99) above

| Sequence | pKd [1, 4] | pKd ([2]; stated for derivatives) | also measured |
| --- | --- | --- | --- |
| ACGCACGUCCCUCACCGGUGCAAGUGAAGCCGUGGCUCUGC [D-180-D1-012] | > 9.00 | – | – |
| ACGCACGUCCCUCACCGGUGCAAGUGAAGCCGUGGCUCUGCGU [D-180-D1-002] | > 9.00 | – | – |
| AGCGUGCCAGUGUGAUGGGGGGGCGCGACCCAUUUUACACGCU [D-176-C9trc] | – | – | pKd ([1]; Type 1B): 8.30 |
| AGCGUGCCCGGUGUGGUAGGGGGGCGCGACCUACAUUUGCACGCU [D-176-E10trc] | – | – | pKd ([1]; Type 1A): 8.30 |
| CGCACGUCCCUCACCGGUGCAAGUGAAGCCGUGGCUCUGCG [D-180-D1-035] | > 9.00 | – | – |
| CUGGUUACCGAGGGGGCGUCGUUGGAGUUUGGUUGGUUGUCACCAG [D-189-G7-002] | – | > 9.00 | – |
| GAGAUGGCGACAUUGGUUGGGCAUGAGGCGAGGCCCUUUGAUGAAUCCGCGGCCAUUC [D-188-A3-001] | – | – | pKd [2]: > 9.00 |
| GAUGGCGACAUUGGUUGGGCAUGAGGCGAGGCCCUUUGAUGAAUCCGCGGCCAUUC [D-188-A3-004] | – | > 9.00 | – |
| GCACGUCCCUCACCGGUGCAAGUGAAGCCGUGGCUCUGCG [D-NOX-E36 (D-180-D1-036)] | – | – | pKd ([1]; 37 C, selection buffer 1 mM Mg, 1 mM Ca): 9.84; pKd ([1]; room temperature, selection buffer 1 mM Mg, 1 mM Ca): 9.05 |
| GCACGUCCCUCACCGGUGCAAGUGAAGCCGUGGCUCUGCG [NOX-E36 (180-D1-036)] | – | – | pKd ([3]; PioneerF1 chip): 9.05 |
| GCACGUCCCUCACCGGUGCAAGUGAAGCCGUGGCUCUGCGU [D-180-D1-011] | > 9.00 | – | – |
| GCCGGCUACCGAGGGGGCGUCGUUGGAGUUUGGUUGGUUGUCGCCGGC [D-189-G7-008] | – | > 9.00 | – |
| GCCGGUUACCGAGGGGGCGUCGUUGGAGUUUGGUUGGUUGUCACCGGC [D-189-G7-007] | – | > 9.00 | – |
| GCGCGUACCGAGGGGGCGUCGUUGGAGUUUGGUUGGUUGUCCGCGC [D-189-G7-010] | – | > 9.00 | – |
| GCUGGUUACCGAGGGGGCGUCGUUGGAGUUUGGUUGGUUGUCACCAGC [D-189-G7-001] | – | – | pKd [2]: > 9.00 |
| GGCGACAUUGGUUGGGCAUGAGGCGAGGCCCUUUGAUGAAUCCGCGGCCAUU [D-188-A3-006] | – | > 9.00 | – |
| GGCGACAUUGGUUGGGCAUGAGGCGAGGCCCUUUGAUGAAUCCGCGGCCAUUC [D-188-A3-005] | – | > 9.00 | – |
| GGGCCUACCGAGGGGGCGUCGUUGGAGUUUGGUUGGUUGUCGGCCC [D-189-G7-012] | – | > 9.00 | – |
| GGGCGUAGUGAGAAACUACCAACGACUGGCUAGAGCCGGCCC [181-A2-018] | – | – | pKd ([3]; CM4 chip): 9.43 |
| GUGCGCGUAGUUAAAAACUACCAGCGACUGGCUAGAGCCGGCGCAC [D-178-D5-030] | 9.30 | – | – |
| GUGCUGCGUAGUGAGAAACUACCAACGACUGGCUAGAGCCGGCAGCAC [D-181-A2] | 10.00 | – | – |
| GUGCUGCGUAGUUAAAAACUACCAGCGACUGGCUAGAGCCGGCAGCAC [D-178-D5] | 9.30 | – | – |
| UGGUUACCGAGGGGGCGUCGUUGGAGUUUGGUUGGUUGUCACCA [D-189-G7-003] | – | > 9.00 | – |
